Source: patent US20220332824A1 (published 2022)
Positions count from the first letter of the chain named.

B1: anti-CD47 monoclonal antibody (heavy chain H0 and light chain L0) (antibody, V domains shown)
VH: EVQLVQSGAEVKKPGSSVKVSCKASGYSFTHHWIHWVRQAPGQGLEWMGMIDASDSETRLSQKFKDRVTITADKSTSTAYMELSSLRSEDTAVYYCARLGRYYFDYWGQGTTVTVSS
VL: EIVLTQSPATLSLSPGERATLSCRASENVGTYISWYQQKPGQAPRLLIYGASNRYTGIPARFSGSGSGTDFTLTISSLEPEDFAVYYCGESYGHLYTFGGGTKVEIKR
B2: bispecific antibody PD1b-E-HN (bispecific antibody)
heavy: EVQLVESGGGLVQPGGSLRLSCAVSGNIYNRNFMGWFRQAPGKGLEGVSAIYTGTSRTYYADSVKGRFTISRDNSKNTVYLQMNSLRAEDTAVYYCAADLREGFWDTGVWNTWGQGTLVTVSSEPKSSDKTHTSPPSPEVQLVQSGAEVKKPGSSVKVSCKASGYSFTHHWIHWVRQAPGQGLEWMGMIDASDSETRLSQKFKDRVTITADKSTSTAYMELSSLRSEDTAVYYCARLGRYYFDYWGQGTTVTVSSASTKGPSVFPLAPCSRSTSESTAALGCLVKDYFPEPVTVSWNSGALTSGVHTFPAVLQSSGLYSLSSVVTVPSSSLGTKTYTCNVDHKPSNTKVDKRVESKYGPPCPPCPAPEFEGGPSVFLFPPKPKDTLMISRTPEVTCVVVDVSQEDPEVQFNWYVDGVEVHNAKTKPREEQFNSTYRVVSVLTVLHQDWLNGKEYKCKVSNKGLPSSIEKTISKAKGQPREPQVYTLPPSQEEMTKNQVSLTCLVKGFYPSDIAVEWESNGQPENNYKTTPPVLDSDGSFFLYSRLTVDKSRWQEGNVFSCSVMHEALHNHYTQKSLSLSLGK
light: EIVLTQSPATLSLSPGERATLSCRASENVGTYISWYQQKPGQAPRLLIYGASNRYTGIPARFSGSGSGTDFTLTISSLEPEDFAVYYCGESYGHLYTFGGGTKVEIKRTVAAPSVFIFPPSDEQLKSGTASVVCLLNNFYPREAKVQWKVDNALQSGNSQESVTEQDSKDSTYSLSSTLTLSKADYEKHKVYACEVTHQGLSSPVTKSFNRGEC
B3: bispecific antibody PD1a-G15-HC (bispecific antibody)
heavy: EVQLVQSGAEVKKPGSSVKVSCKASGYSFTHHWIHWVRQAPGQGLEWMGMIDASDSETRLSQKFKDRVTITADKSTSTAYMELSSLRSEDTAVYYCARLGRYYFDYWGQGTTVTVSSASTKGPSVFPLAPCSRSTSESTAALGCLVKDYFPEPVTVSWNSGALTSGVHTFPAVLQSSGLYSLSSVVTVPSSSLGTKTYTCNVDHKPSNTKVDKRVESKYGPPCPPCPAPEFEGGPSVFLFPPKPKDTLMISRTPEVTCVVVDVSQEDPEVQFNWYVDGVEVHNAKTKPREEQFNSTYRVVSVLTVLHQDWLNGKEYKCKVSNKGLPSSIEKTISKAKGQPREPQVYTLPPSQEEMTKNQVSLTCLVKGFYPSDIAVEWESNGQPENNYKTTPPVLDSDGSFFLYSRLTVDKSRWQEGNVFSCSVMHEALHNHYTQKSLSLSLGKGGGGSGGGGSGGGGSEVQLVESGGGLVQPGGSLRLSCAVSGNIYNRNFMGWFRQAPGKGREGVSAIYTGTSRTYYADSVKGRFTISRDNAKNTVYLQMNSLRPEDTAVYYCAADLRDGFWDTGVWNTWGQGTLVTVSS
light: B2 light
B4: bispecific antibody PD1b-E-HC (bispecific antibody)
heavy: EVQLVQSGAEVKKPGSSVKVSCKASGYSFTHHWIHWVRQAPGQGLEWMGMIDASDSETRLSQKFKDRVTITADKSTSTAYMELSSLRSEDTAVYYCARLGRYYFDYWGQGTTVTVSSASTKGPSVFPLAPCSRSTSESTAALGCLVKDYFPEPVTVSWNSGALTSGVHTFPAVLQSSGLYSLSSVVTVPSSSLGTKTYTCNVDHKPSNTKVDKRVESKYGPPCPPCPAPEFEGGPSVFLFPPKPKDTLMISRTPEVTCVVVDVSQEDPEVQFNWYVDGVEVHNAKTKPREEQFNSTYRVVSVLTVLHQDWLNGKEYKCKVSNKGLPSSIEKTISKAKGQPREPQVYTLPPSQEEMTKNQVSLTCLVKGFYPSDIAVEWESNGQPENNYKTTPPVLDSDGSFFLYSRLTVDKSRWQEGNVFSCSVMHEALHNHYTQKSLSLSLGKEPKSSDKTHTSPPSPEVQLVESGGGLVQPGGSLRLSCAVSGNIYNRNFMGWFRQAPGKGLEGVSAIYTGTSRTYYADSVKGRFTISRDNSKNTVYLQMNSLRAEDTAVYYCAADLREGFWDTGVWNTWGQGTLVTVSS
light: B2 light
B5: bispecific antibody PD1a-E-HN (bispecific antibody)
heavy: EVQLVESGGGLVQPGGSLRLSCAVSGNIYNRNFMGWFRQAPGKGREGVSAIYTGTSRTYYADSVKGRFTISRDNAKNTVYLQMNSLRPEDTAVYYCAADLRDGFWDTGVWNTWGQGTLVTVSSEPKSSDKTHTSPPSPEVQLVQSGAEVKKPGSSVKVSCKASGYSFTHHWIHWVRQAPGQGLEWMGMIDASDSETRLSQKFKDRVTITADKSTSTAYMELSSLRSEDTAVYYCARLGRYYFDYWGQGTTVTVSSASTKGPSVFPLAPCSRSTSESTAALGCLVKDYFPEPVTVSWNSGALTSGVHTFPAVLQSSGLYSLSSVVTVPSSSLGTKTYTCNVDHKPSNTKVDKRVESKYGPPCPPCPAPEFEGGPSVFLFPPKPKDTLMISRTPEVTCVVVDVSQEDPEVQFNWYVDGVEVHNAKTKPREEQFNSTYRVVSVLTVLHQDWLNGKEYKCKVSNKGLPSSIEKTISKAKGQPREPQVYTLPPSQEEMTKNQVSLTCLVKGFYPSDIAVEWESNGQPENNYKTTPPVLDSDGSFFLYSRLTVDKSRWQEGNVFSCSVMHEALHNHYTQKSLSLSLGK
light: B2 light
B6: bispecific antibody PD1a-E-HC (bispecific antibody)
heavy: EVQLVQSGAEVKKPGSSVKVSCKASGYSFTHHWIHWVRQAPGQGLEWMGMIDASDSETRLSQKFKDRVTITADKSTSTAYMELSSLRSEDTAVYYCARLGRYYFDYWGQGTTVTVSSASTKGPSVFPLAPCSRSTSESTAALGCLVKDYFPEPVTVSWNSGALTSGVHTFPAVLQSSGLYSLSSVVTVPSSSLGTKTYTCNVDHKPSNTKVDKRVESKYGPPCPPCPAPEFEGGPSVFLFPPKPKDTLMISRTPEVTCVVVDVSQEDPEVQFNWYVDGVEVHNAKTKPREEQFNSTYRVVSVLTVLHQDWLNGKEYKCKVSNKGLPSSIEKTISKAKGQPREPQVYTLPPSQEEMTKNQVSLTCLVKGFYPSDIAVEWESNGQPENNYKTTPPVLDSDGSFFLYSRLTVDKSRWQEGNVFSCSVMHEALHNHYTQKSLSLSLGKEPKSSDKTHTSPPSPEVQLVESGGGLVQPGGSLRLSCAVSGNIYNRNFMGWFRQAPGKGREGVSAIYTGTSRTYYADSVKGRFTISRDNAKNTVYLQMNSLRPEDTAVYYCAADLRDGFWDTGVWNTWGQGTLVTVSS
light: B2 light
B7: bispecific antibody PD1a-E-LN (bispecific antibody)
heavy: not shown
light: EVQLVESGGGLVQPGGSLRLSCAVSGNIYNRNFMGWFRQAPGKGREGVSAIYTGTSRTYYADSVKGRFTISRDNAKNTVYLQMNSLRPEDTAVYYCAADLRDGFWDTGVWNTWGQGTLVTVSSEPKSSDKTHTSPPSPEIVLTQSPATLSLSPGERATLSCRASENVGTYISWYQQKPGQAPRLLIYGASNRYTGIPARFSGSGSGTDFTLTISSLEPEDFAVYYCGESYGHLYTFGGGTKVEIKRTVAAPSVFIFPPSDEQLKSGTASVVCLLNNFYPREAKVQWKVDNALQSGNSQESVTEQDSKDSTYSLSSTLTLSKADYEKHKVYACEVTHQGLSSPVTKSFNRGEC
B8: bispecific antibody PD1b-E-LN (bispecific antibody)
heavy: not shown
light: B7 light with R45L, A75S, P88A, D102E
B9: bispecific antibody PD1a-E-LC (bispecific antibody)
heavy: not shown
light: EIVLTQSPATLSLSPGERATLSCRASENVGTYISWYQQKPGQAPRLLIYGASNRYTGIPARFSGSGSGTDFTLTISSLEPEDFAVYYCGESYGHLYTFGGGTKVEIKRTVAAPSVFIFPPSDEQLKSGTASVVCLLNNFYPREAKVQWKVDNALQSGNSQESVTEQDSKDSTYSLSSTLTLSKADYEKHKVYACEVTHQGLSSPVTKSFNRGECEPKSSDKTHTSPPSPEVQLVESGGGLVQPGGSLRLSCAVSGNIYNRNFMGWFRQAPGKGREGVSAIYTGTSRTYYADSVKGRFTISRDNAKNTVYLQMNSLRPEDTAVYYCAADLRDGFWDTGVWNTWGQGTLVTVSS
B10: bispecific antibody PD1b-E-LC (bispecific antibody)
heavy: not shown
light: B9 light with R274L, A304S, P317A, D331E

What follows are binders tested against CD47 (UniProt Q08722 19-323) (assay: FACS).
CD47, sequence (Q08722 19-323): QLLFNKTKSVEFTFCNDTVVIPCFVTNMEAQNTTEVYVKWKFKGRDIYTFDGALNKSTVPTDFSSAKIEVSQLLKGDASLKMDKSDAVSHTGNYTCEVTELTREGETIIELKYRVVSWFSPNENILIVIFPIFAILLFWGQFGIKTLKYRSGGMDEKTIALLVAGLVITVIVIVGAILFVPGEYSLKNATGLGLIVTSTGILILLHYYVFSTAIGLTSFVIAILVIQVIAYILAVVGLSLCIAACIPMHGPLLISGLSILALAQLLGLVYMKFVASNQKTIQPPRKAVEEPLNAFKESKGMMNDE
In the case of B1, the EC50 is reported as 1.46 nM.
Binder B2 has an EC50 of 1.78 nM.
B3 showed an EC50 of 0.968 nM.
B4 showed an EC50 of 0.804 nM.
B5 was tested, and the EC50 was 1.41 nM.
Work on B6 yielded an EC50 of 1.09 nM.

Each binder was assayed against human PD-1 (human, UniProt Q15116 25-288) (assay: FACS binding, CHO-K1 cells expressing human PD-1).
human PD-1, sequence (Q15116 25-288): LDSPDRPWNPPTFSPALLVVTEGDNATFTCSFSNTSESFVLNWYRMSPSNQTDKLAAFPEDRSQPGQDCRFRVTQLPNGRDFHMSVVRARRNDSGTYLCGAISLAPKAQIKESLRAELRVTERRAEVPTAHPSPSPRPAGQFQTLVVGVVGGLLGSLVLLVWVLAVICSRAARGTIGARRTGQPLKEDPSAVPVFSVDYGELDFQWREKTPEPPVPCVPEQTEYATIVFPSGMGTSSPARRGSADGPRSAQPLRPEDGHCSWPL
In the case of B1, the EC50 is reported as about 4.44 nM.
B2 gave an EC50 of 2.82 nM.
In the case of B3, the EC50 is reported as 4.75 nM.
B4 was tested, and the EC50 was 3.25 nM.
B5 was tested, and the EC50 was 4.15 nM.
Work on B6 yielded an EC50 of 2.6 nM.
B7 showed an EC50 of 3.69 nM.
B8 was tested, and the EC50 was 3.02 nM.
B9 showed an EC50 of 7.74 nM.
B10 showed an EC50 of 2.34 nM.
